# Results as given in paper PMC3893233.
# Tests used:
# Assay in all cases: SPR
# [1] = target: homo-DLE variant (of Table 1, compared with control mAb1)
# [2] = target: hemi-YWA variant
# [3] = target: homo-L235V/F243L/R292P/Y300L/P396L (VLPYLL) variant
# [4] = target: homo-DLE variant (of Table 2, prepared by control mAb2)
# [5] = target: afucosyl mAb
Kd [1],Kd [2],Fold KD = KD (control mAb2)/KD (Fc variant) [3],Fold KD = KD (control mAb2)/KD (Fc variant) [4],Fold KD = KD (IgG1)/KD (Fc variant) [5],Substance
0.0055 µM,0.28 µM,,,,"human FcγRIIIa^F158, extracellular region (from UniProt P08637 17-208) (receptor)"
,,33 fold,126 fold,45 fold,"human FcγRIIIa^V158, extracellular region (receptor)"
,,,1.4 fold,0.85 fold,"human FcγRIIa^H131, extracellular region (from UniProt P12318 34-217) (receptor)"
,,,2.9 fold,1.8 fold,"human FcγRIIa^R131, extracellular region (receptor)"
,,0.54 fold,6.7 fold,,"human FcγRIIb, extracellular region (from UniProt P31994 43-217) (receptor)"
,,,3.4 fold,,"human FcγRIa, extracellular region (from UniProt P12314 16-292) (receptor)"
